Measurements: patent US20100080812A1 (ROCHE PALO ALTO, published 2010)
Values belong to the molecule of their own block, whether it stands above or below them.

Experiments:
[1] = molecular target: recombinant human IL-17 (Peprotech #200-17) (human) (UniProt Q16552); assay: cell-based or functional assay
[2] = molecular target: recombinant human IL-17 (Peprotech #200-17) (human) (UniProt Q16552); assay: ELISA, coated IL-17 subtype, antibody 10 µg/ml, OD 405/492 nm
human IL-17B = molecular target: T1, human IL-17B (human, UniProt Q9UHF5 21-180, limits assumed); assay: as above
T1 sequence (looked up): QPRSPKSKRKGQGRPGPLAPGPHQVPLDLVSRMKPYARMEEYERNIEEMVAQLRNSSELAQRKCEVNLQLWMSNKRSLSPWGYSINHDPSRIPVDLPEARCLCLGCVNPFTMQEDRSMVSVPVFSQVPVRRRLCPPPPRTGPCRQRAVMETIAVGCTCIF

human IL-17C [3] = molecular target: T2, human IL-17C (human, UniProt Q9P0M4 19-197, limits assumed); assay: as above
T2 sequence (looked up): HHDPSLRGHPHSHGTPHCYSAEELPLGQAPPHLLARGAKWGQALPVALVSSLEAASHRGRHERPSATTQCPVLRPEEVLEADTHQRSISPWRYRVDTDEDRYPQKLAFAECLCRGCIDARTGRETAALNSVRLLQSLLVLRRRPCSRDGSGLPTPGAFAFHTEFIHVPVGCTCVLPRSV

human IL-17D = molecular target: T3, human IL-17D (human, UniProt Q8TAD2 18-202, limits assumed); assay: as above
T3 sequence (looked up): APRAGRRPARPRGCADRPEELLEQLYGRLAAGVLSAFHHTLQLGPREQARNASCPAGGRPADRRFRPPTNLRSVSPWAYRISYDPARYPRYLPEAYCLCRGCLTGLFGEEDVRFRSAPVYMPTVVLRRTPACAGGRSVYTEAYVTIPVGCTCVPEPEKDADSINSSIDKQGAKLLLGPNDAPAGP

human IL-17E = molecular target: T4, human IL-17E (human, UniProt Q9H293 33-177, limits assumed); assay: as above
T4 sequence (looked up): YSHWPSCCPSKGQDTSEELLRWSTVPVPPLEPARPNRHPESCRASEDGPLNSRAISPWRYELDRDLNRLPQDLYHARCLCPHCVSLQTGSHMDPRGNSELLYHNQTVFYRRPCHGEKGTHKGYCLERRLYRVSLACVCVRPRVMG

human IL-17F [4] = molecular target: T5, human IL-17F (human, UniProt Q96PD4 31-163, limits assumed); assay: as above
T5 sequence (looked up): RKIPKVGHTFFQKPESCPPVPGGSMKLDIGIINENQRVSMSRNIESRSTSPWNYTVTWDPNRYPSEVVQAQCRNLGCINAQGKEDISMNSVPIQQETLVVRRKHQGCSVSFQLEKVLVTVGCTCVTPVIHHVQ

[5] = molecular target: cynomolgus IL-17A (cynomolgus monkey); assay: cell-based or functional assay
[6] = molecular target: T6, recombinant human IL-17 (Peprotech #200-17) (human, UniProt Q16552 20-155); assay: cell-based or functional assay
T6 sequence (looked up): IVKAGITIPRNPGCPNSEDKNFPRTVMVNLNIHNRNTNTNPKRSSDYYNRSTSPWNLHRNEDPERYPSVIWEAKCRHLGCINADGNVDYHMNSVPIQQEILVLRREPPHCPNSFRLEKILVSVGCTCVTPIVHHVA

[7] = molecular target: T6, recombinant human IL-17 (Peprotech …); assay: cell-based or functional assay; remark: listed apart in the source
cynomolgus IL-17A = molecular target: T7, cynomolgus IL-17A (cynomolgus monkey, UniProt A0A2K5TTB0 24-155); assay: cell-based or functional assay
T7 sequence: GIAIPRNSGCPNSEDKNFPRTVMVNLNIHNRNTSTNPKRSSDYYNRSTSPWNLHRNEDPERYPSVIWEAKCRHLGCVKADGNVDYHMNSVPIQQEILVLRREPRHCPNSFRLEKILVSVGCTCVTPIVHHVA

human IL-17C [8] = molecular target: T2, human IL-17C; assay: ELISA on immobilized IL-17 variant
human IL-17F [9] = molecular target: T5, human IL-17F; assay: ELISA on immobilized IL-17 variant
[10] = molecular target: T6, recombinant human IL-17 (Peprotech …); assay: ELISA, coated IL-17 subtype, antibody 10 µg/ml, OD 405/492 nm

Molecule: MAB 317 of R&D Systems (antibody)
IL-6 Neutralization IC50 [1]: 5.5 nM
IL-8 Neutralization IC50 [1]: 5.5 nM
Binding (IL-17A binding set as 100) (% (IL-17A binding set as 100)) [2]: 100
Binding (IL-17A binding set as 100) (% (IL-17A binding set as 100)) (human IL-17B): 0
Binding (IL-17A binding set as 100) (% (IL-17A binding set as 100)) (human IL-17C [3]): 0
Binding (IL-17A binding set as 100) (% (IL-17A binding set as 100)) (human IL-17D): 0
Binding (IL-17A binding set as 100) (% (IL-17A binding set as 100)) (human IL-17E): 0
Binding (IL-17A binding set as 100) (% (IL-17A binding set as 100)) (human IL-17F [4]): 0

Molecule: Mab 16-7178-85 of eBioscience (antibody)
Binding (IL-17A binding set as 100) (% (IL-17A binding set as 100)) [2]: 100
Binding (IL-17A binding set as 100) (% (IL-17A binding set as 100)) (human IL-17B): 7
Binding (IL-17A binding set as 100) (% (IL-17A binding set as 100)) (human IL-17C [3]): 97
Binding (IL-17A binding set as 100) (% (IL-17A binding set as 100)) (human IL-17D): 6
Binding (IL-17A binding set as 100) (% (IL-17A binding set as 100)) (human IL-17E): 5
Binding (IL-17A binding set as 100) (% (IL-17A binding set as 100)) (human IL-17F [4]): 5

More lines, main results first:

IL-6 Neutralization IC50 (nM) (using 100 ng/ml IL-17A) [5]: > 10 nM
IL-8 Neutralization IC50 (nM) (using 100 ng/ml IL-17A) [5]: > 10 nM
IL-6 Neutralization IC50 (nM) (using 100 ng/ml IL-17A) [1]: 5 nM
IL-8 Neutralization IC50 (nM) (using 100 ng/ml IL-17A) [1]: 4.2 nM
Binding (IL-17A binding set as 100) (% (IL-17A binding set as 100)) [2]: 100
Binding (IL-17A binding set as 100) (% (IL-17A binding set as 100)) (human IL-17B): 2
Binding (IL-17A binding set as 100) (% (IL-17A binding set as 100)) (human IL-17C [3]): 2
Binding (IL-17A binding set as 100) (% (IL-17A binding set as 100)) (human IL-17D): 0
Binding (IL-17A binding set as 100) (% (IL-17A binding set as 100)) (human IL-17E): 3
Binding (IL-17A binding set as 100) (% (IL-17A binding set as 100)) (human IL-17F [4]): 62
Molecule: NVP-AIN-497 (WO 2006013107) (antibody)

IL-6 Neutralization IC50 [6]: 1 nM
IL-8 Neutralization IC50 [6]: 1 nM
IL-6 Neutralization IC50 (nM) (using 100 ng/ml IL-17A) [7]: 2.1 nM
IL-8 Neutralization IC50 (nM) (using 100 ng/ml IL-17A) [7]: 1.6 nM
IL-6 Neutralization IC50 (nM) (using 100 ng/ml IL-17A) (cynomolgus IL-17A): 0.7 nM
IL-8 Neutralization IC50 (nM) (using 100 ng/ml IL-17A) (cynomolgus IL-17A): 0.6 nM
Binding (IL-17A binding set as 100) [10]: 100 % (IL-17A binding set as 100)
Binding (IL-17A binding set as 100) (human IL-17B): 0 % (IL-17A binding set as 100)
Binding (IL-17A binding set as 100) (human IL-17C [3]): 0 % (IL-17A binding set as 100)
Binding (IL-17A binding set as 100) (human IL-17D): 0 % (IL-17A binding set as 100)
Binding (IL-17A binding set as 100) (human IL-17E): 1 % (IL-17A binding set as 100)
Binding (IL-17A binding set as 100) (human IL-17F [4]): 0 % (IL-17A binding set as 100)
B1: Mab 106 (antibody, V domains shown)
VH: EVQLVESGGGLVQPGGSLRLSCAASGFTFSDYTMLWVRQAPGKGLEWVAIIKSGGSYSYYPDSVKGRFTISRDNAKNSLYLQMNSLRAEDTAVYYCARDGDYGSSYGAMDYWGQGTLVTVSS
VL: DIQMTQSPSSLSASVGDRVTITCRASQDINSYLSWFQQKPGKAPKSLIYRANRLVDGVPSRFSGSGSGQDYSLTISSLQPEDFATYYCLQYDAFPPYTFGQGTKLEIK
notes: Humanized version of 3C1; Only the variable domains are tied to it; also called Mab K106
binding result (human IL-17C [8]): no binding (tested: S/N ratio lower than 7:1)
binding result (human IL-17F [9]): no binding (tested: S/N ratio lower than 7:1)
